Values quoted from earlier work, collected in PMC9880166.
Like-named read-outs stand apart in the source and are kept apart here.

Experiments:
[1] = target: prolactin receptor (Homo sapiens) (UniProt P16471)
[2] = target: prolactin receptor (Homo sapiens) (UniProt P16471); test: SPR

Chain of prolactin (P01236 29-227): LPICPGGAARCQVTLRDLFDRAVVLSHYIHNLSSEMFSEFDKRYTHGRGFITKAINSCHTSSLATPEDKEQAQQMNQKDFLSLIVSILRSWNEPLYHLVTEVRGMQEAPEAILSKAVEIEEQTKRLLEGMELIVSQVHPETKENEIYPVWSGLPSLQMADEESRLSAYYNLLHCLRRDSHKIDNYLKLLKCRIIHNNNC
Chain of UniProt P16471 (P16471 25-234): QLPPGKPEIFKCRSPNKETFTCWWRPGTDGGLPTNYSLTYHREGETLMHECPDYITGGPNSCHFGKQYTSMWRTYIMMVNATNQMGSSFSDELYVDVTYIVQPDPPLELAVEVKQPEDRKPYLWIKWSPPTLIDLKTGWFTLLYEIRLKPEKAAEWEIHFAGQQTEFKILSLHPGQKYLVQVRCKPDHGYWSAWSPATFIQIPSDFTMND

prolactin (from UniProt P01236)
Kd [1]: 29.9 nM | Kd [2]: 23 nM
